Molecular target: Neurabin (Nrb), endogenous in rat cortical neurons (rat (endogenous in primary cortical neurons)) (UniProt O35867)
Assay: co-IP

Chain of UniProt O35867 (O35867 whole entry): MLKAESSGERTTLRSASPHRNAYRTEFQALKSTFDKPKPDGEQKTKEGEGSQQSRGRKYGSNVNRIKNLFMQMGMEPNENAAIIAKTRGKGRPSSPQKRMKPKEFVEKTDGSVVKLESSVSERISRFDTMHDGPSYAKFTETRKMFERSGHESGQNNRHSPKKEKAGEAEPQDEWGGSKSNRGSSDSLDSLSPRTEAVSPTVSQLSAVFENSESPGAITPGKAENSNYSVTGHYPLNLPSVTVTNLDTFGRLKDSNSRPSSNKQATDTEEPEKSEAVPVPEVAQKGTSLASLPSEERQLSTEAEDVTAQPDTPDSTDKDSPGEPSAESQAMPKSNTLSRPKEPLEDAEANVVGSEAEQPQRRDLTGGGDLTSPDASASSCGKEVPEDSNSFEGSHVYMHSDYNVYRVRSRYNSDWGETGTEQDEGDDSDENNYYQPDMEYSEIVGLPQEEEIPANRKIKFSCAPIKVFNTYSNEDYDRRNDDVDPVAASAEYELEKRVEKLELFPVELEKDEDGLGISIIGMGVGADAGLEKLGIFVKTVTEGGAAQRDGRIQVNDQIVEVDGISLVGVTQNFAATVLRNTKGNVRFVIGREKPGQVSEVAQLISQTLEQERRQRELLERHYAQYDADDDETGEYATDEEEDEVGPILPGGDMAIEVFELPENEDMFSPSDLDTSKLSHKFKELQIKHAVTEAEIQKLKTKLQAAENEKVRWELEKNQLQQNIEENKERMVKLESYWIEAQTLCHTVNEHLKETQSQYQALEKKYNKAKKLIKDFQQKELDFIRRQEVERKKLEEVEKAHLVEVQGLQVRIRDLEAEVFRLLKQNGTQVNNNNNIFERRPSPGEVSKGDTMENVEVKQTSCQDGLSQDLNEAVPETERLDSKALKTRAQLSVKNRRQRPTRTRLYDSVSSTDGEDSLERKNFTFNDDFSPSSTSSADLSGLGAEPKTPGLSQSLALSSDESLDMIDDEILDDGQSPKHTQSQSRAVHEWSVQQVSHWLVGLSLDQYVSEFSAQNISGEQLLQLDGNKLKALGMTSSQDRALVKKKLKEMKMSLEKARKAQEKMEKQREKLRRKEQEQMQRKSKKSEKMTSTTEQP

With “Protein phosphatase-1 (PP1), endogenous in rat cortical neurons (from UniProt P62138 1-330) (enzyme)” the PP1 co-IPed with Nrb after forskolin, percent of no forskolin control was 62.8%.

From PMC6066450
